Reference: patent publication US20240261333A1, “NOVEL TARGETS FOR ENHANCING ANTI-TUMOR IMMUNITY” (THE BROAD INSTITUTE, INC., priority 2021, published 2024)

Legend:
ABCD1 (human) = ABCD1 (human) (UniProt P33897); experiment: anti-FLAG co-IP from lysate of C-FLAG B3GNT2 cells, mass spectrometry
ACSL3 (human) = ACSL3 (human) (UniProt O95573); experiment: as above
AIFM1 (human) = AIFM1 (human) (UniProt O95831); experiment: as above
ATAD3A (human) = ATAD3A (human) (UniProt Q9NVI7); experiment: as above
DNAJA3 (human) = DNAJA3 (human) (UniProt Q96EY1); experiment: as above
ERP44 (human) = ERP44 (human) (UniProt Q9BS26); experiment: as above
H1FX (human) = H1FX (human) (UniProt Q92522); experiment: as above
IFI16 (human) = IFI16 (human) (UniProt Q16666); experiment: as above
KPNB1 (human) = KPNB1 (human) (UniProt Q14974); experiment: as above
KTN1 (human) = KTN1 (human) (UniProt Q86UP2); experiment: as above
NTPCR (human) = NTPCR (human) (UniProt Q9BSD7); experiment: as above
PDIA4 (human) = PDIA4 (human) (UniProt P13667); experiment: as above
Sequence of PDIA4 (human) (P13667 21-645 limits assumed): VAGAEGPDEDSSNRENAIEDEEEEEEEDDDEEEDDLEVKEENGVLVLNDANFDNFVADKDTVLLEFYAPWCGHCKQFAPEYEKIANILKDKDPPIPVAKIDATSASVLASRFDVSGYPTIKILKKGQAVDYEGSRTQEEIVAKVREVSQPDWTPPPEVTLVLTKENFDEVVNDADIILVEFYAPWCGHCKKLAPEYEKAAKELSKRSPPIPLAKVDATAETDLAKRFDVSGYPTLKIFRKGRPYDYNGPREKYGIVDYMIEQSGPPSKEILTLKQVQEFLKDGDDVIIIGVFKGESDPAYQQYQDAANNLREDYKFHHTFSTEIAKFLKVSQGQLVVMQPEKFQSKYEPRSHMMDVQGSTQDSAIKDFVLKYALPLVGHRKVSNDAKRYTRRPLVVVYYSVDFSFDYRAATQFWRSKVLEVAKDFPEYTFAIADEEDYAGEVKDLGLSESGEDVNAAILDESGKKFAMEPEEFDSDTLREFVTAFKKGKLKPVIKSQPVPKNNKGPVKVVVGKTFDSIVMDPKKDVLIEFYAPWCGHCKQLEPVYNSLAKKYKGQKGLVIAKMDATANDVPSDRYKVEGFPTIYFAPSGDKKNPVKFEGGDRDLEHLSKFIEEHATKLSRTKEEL

PGAM5 (human) = PGAM5 (human) (UniProt Q96HS1); experiment: as above
PSMB6 (human) = PSMB6 (human) (UniProt P28072); experiment: as above
Sequence of PSMB6 (human) (P28072 35-239 limits assumed): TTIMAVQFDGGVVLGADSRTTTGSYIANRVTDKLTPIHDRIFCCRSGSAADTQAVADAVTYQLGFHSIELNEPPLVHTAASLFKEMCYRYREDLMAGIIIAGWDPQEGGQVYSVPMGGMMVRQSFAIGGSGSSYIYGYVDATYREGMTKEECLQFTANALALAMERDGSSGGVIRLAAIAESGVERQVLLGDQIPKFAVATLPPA

PXN (human) = PXN (human) (UniProt P49023); experiment: as above
RPL15 (human) = RPL15 (human) (UniProt P61313); experiment: as above
RPS6 (human) = RPS6 (human) (UniProt P62753); experiment: as above
RRBP1 (human) = RRBP1 (human) (UniProt Q9P2E9); experiment: as above
SFXN3 (human) = SFXN3 (human) (UniProt Q9BWM7); experiment: as above
TECR (human) = TECR (human) (UniProt Q9NZ01); experiment: as above
TRAFD1 (human) = TRAFD1 (human) (UniProt O14545); experiment: as above
TUBA1C (human) = TUBA1C (human) (UniProt Q9BQE3); experiment: as above
ZRANB2 (human) = ZRANB2 (human) (UniProt O95218); experiment: as above
ARF4 (human) = ARF4 (human) (UniProt P18085); experiment: co-IP with anti-FLAG, mass spectrometry; lysate of cells with C-FLAG B3GNT2
CCT2 (human) = CCT2 (human) (UniProt P78371); experiment: as above
DNAJB11 (human) = DNAJB11 (human) (UniProt Q9UBS4); experiment: as above
EIF4A1 (human) = EIF4A1 (human) (UniProt P60842); experiment: as above
Sequence of EIF4A1 (human) (P60842 2-406 limits assumed): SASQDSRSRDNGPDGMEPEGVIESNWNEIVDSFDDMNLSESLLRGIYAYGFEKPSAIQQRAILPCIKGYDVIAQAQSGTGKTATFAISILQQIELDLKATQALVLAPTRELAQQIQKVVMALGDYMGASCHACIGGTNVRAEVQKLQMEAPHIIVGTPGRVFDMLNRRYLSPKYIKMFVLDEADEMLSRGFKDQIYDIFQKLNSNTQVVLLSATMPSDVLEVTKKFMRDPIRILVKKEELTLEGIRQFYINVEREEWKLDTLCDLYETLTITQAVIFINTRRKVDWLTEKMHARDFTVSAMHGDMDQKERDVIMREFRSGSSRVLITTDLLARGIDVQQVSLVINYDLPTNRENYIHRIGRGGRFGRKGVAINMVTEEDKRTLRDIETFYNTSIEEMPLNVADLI

GALNT2 (human) = GALNT2 (human) (UniProt Q10471); experiment: as above
GANAB (human) = GANAB (human) (UniProt Q14697); experiment: as above
GAPDH (human) = GAPDH (human) (UniProt P04406); experiment: as above
ILF3 (human) = ILF3 (human) (UniProt Q12906); experiment: as above
IPO13 (human) = IPO13 (human) (UniProt O94829); experiment: as above
Sequence of IPO13 (human) (O94829 whole entry): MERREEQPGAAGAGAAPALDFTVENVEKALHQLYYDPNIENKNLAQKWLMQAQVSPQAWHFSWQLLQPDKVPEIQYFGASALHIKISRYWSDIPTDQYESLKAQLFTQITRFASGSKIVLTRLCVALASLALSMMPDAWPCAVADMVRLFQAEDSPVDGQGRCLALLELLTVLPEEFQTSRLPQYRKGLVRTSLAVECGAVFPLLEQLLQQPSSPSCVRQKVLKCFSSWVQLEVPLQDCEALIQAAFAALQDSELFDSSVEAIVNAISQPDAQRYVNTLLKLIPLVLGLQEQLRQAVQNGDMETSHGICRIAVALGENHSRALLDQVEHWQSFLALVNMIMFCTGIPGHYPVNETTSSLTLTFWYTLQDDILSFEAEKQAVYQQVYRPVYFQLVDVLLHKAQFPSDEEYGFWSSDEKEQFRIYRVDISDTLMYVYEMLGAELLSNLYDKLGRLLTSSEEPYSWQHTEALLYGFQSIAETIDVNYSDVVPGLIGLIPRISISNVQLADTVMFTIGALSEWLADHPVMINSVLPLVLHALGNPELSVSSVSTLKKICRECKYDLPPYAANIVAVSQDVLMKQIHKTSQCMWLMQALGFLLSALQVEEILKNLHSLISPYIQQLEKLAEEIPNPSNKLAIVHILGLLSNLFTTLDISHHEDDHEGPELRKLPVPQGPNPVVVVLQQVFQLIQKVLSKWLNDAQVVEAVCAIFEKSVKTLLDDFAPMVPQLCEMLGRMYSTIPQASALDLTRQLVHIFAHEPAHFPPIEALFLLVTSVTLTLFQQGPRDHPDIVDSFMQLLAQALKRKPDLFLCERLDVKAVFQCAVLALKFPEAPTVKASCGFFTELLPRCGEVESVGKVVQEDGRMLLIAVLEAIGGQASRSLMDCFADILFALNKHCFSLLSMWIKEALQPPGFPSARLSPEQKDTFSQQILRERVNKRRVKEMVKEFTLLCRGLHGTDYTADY

MAGT1 (human) = MAGT1 (human) (UniProt Q9H0U3); experiment: as above
Sequence of MAGT1 (human) (Q9H0U3 30-335 limits assumed): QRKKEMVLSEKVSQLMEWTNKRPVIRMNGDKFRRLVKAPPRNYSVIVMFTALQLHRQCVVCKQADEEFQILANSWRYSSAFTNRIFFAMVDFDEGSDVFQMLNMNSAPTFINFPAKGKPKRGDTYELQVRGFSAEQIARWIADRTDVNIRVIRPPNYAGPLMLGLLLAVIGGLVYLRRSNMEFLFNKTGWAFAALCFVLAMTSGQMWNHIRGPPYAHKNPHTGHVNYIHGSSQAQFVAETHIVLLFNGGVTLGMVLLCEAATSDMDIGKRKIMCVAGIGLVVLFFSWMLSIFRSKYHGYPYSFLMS

SLC27A4 (human) = SLC27A4 (human) (UniProt Q6P1M0); experiment: as above
Sequence of SLC27A4 (human) (Q6P1M0 whole entry): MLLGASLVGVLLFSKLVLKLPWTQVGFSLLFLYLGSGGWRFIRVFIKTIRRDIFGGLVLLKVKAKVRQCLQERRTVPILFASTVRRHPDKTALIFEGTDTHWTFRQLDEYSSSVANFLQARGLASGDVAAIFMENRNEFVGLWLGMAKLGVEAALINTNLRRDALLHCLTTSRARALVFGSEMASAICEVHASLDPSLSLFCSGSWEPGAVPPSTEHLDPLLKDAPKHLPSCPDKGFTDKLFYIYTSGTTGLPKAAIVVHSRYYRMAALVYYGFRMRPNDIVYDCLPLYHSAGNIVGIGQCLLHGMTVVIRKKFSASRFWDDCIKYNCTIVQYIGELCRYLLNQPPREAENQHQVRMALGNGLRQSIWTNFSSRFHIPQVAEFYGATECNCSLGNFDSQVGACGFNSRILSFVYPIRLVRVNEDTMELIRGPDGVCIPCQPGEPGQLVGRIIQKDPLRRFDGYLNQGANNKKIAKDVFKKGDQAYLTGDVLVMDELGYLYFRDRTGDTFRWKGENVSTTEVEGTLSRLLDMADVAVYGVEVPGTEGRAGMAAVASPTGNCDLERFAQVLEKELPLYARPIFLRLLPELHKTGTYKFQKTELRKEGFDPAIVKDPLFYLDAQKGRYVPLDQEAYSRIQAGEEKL

STAU2 (human) = STAU2 (human) (UniProt Q9NUL3); experiment: as above
Sequence of STAU2 (human) (Q9NUL3 whole entry): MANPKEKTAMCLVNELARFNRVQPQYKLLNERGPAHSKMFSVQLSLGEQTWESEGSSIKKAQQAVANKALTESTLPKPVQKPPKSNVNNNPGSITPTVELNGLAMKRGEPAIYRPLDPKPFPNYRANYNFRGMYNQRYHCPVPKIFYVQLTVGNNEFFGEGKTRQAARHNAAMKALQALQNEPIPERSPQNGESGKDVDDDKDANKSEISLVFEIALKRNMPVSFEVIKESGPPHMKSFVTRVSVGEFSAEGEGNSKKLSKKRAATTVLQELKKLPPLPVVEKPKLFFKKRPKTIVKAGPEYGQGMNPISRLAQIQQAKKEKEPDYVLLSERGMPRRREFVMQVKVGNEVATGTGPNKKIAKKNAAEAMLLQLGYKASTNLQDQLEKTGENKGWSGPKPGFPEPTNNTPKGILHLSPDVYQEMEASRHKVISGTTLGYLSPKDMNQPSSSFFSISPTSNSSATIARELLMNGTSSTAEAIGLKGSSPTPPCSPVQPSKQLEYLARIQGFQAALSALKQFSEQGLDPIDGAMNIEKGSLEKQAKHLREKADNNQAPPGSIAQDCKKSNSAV

TOR1AIP2 (human) = TOR1AIP2 (human) (UniProt Q8NFQ8); experiment: as above
ZC3HAV1 (human) = ZC3HAV1 (human) (UniProt Q7Z2W4); experiment: as above

Sequence of ACSL3 (human) (O95573 whole entry): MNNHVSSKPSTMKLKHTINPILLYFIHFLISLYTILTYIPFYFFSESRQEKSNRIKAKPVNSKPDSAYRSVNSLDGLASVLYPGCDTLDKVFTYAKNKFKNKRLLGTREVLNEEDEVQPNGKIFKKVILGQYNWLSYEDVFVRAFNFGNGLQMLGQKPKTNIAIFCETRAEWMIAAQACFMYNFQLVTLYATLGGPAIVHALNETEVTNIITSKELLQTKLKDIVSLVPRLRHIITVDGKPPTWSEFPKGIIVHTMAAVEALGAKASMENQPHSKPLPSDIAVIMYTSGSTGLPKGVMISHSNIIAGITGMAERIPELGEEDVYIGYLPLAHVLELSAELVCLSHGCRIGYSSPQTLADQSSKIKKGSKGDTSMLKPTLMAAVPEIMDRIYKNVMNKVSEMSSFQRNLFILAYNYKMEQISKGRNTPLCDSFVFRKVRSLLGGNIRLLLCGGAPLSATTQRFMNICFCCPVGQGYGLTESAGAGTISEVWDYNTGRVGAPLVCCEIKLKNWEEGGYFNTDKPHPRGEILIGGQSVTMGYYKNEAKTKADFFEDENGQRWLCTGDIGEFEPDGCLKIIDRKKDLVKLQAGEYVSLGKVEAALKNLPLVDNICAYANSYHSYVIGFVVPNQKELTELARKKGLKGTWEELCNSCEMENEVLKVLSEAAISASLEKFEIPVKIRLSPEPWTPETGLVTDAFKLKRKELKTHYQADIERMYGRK
Sequence of AIFM1 (human) (O95831 55-613 limits assumed): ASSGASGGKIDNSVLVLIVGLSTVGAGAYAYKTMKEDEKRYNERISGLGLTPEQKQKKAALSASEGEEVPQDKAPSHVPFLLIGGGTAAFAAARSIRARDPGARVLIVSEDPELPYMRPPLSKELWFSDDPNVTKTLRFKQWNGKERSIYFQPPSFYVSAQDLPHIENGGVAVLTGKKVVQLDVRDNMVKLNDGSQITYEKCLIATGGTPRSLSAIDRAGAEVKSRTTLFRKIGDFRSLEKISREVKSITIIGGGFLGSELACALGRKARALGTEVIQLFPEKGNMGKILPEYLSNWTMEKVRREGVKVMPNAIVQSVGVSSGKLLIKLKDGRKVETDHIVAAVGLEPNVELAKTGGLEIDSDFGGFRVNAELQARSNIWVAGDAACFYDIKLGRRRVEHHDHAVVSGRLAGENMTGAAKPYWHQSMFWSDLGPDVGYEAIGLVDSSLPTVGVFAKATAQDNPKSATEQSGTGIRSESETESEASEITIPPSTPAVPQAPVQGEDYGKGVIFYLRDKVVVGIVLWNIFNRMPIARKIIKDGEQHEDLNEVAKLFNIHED

C-terminal FLAG tagged B3GNT2 (from UniProt Q9NY97 1-397) (enzyme)
co-IP mass spectrometry count (ABCD1 (human)): 2
co-IP mass spectrometry count (ACSL3 (human)): 5
co-IP mass spectrometry count (AIFM1 (human)): 5
co-IP mass spectrometry count (ATAD3A (human)): 9
co-IP mass spectrometry count (DNAJA3 (human)): 2
co-IP mass spectrometry count (ERP44 (human)): 2
co-IP mass spectrometry count (H1FX (human)): 2
co-IP mass spectrometry count (IFI16 (human)): 2
co-IP mass spectrometry count (KPNB1 (human)): 7
co-IP mass spectrometry count (KTN1 (human)): 2
co-IP mass spectrometry count (NTPCR (human)): 2
co-IP mass spectrometry count (PDIA4 (human)): 9
co-IP mass spectrometry count (PGAM5 (human)): 5
co-IP mass spectrometry count (PSMB6 (human)): 3
co-IP mass spectrometry count (PXN (human)): 0
co-IP mass spectrometry count (RPL15 (human)): 15
co-IP mass spectrometry count (RPS6 (human)): 20
co-IP mass spectrometry count (RRBP1 (human)): 16
co-IP mass spectrometry count (SFXN3 (human)): 2
co-IP mass spectrometry count (TECR (human)): 9
co-IP mass spectrometry count (TRAFD1 (human)): 2
co-IP mass spectrometry count (TUBA1C (human)): 63
co-IP mass spectrometry count (ZRANB2 (human)): 3
co-IP mass spectrometry count (ARF4 (human)): 4
co-IP mass spectrometry count (CCT2 (human)): 2
co-IP mass spectrometry count (DNAJB11 (human)): 4
co-IP mass spectrometry count (EIF4A1 (human)): 6
co-IP mass spectrometry count (GALNT2 (human)): 2
co-IP mass spectrometry count (GANAB (human)): 8
co-IP mass spectrometry count (GAPDH (human)): 16
co-IP mass spectrometry count (ILF3 (human)): 5
co-IP mass spectrometry count (IPO13 (human)): 2
co-IP mass spectrometry count (MAGT1 (human)): 2
co-IP mass spectrometry count (SLC27A4 (human)): 2
co-IP mass spectrometry count (STAU2 (human)): 2
co-IP mass spectrometry count (TOR1AIP2 (human)): 2
co-IP mass spectrometry count (ZC3HAV1 (human)): 4
